T1: monkey CD22 protein (ACROBiosystems, catalog number SI2-R52Ha) (monkey, UniProt F6W485 20-688)
T1 construct: commercial protein; also called monkey CD22-ECD; monkey CD22-ECD-His
T1 sequence: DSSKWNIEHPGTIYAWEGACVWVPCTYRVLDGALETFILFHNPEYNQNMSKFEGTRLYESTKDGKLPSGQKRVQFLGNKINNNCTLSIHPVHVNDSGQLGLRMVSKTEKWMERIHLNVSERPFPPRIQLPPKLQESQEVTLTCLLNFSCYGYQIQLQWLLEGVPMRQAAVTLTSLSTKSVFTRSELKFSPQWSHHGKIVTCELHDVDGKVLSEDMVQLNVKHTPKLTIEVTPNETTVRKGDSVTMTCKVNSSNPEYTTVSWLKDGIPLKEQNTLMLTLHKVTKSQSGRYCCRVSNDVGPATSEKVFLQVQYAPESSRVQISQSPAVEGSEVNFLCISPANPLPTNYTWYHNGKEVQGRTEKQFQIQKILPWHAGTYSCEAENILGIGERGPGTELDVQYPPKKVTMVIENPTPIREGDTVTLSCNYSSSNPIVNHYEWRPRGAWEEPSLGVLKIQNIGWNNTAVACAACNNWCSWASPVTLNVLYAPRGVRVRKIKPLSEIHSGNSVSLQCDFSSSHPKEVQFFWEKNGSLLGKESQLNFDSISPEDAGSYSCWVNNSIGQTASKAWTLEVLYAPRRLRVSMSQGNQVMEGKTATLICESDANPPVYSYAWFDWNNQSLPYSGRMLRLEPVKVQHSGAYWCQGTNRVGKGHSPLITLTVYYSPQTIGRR


Columns and labels:
[1] = target: T1, monkey CD22 protein (ACROBiosystems, …); assay: ELISA, coated monkey CD22 protein, antibody 0.00001 nM
Protocol: (§1) In order to detect the binding activity of CD22 human-murine chimeric antibodies to CD22 protein, the purified human CD22-ECD-His protein obtained in Example 2 was diluted with PBS to a final concentration of 2 μg/mL, and then added to 96-well ELISA plate at 100 μl/well. The plate was sealed with plastic film and incubated overnight at 4° C., the plate was washed 2 times with PBS the next day, and then a blocking solution [PBS+2% (w/w) BSA] was added for blocking at room temperature for 2 hours. […] After incubation at 37° C. for 2 hours, the plate was washed 3 times with PBS. HRP (horseradish peroxidase)-labeled secondary antibody (purchased from Sigma, catalog number: A0170) was added, and incubated at 37° C. for 2 hours, and the plate was washed 5 times with PBS. TMB substrate was added at 50 μl/well, and incubated at room temperature for 30 minutes, then a stop solution (1.0 N HCl) was added at 50 μl/well.
(§2) In order to detect the species cross-binding activity of the chimeric antibodies, an ELISA plate was coated with commercial murine CD22 protein (ACROBiosystems, catalog number: SI2-M52Ha) and monkey CD22 protein (ACROBiosystems, catalog number: SI2-R52Ha), respectively, and the ELISA detection was performed according to the method in Example 5.1.

[2] = target: T1, monkey CD22 protein (ACROBiosystems, …); assay: ELISA, coated monkey CD22 protein, antibody 0.01 nM
Protocol: as §1, §2

[3] = target: T2, CD22 on cynomolgus monkey peripheral blood B cells (cynomolgus monkey (Macaca fascicularis)); assay: FACS, cynomolgus PBMC, CD20+ B cells, antibody 1 nM
T2 construct: whole, on cells; also called cynomolgus monkey B cells
Excerpt: (§3) The monkey peripheral blood mononuclear cells were extracted from fresh cynomolgus monkey peripheral blood (purchased from Shanghai Medicilon Inc.) according to the instructions of Ficoll-Paque Plus (purchased from GE Healthcare, catalog number: 171440-02). After the cell suspension was centrifuged, the cells were resuspended in PBS containing 1% BSA, and then the cells were counted. At the same time, the murine antibody Brilliant Violet 605 anti-human CD20 (catalog number: 302334, purchased from Biolegend) with monkey CD20 cross-binding activity and the chimeric antibodies to be tested (1 nM, 10 nM and 100 nM) were added and incubated at room temperature for 1 hour. After washing the cells three times, APC-labeled secondary antibody anti-human IgG Fc (catalog number: 409306, purchased from Biolegend) was added. After incubation at room temperature in the dark for 30 minutes, the cells were washed 5 times, gently resuspended with PBS containing 1% BSA, and detected and analyzed by FACS (FACS Canto™, purchased from BD Company). Wherein CD20 was used as a marker of B cells, and the CD20-positive B cell population was gated, the proportion of chimeric antibody positive cells was analyzed, and the proportion of chimeric antibody positive cell population to B cell population was calculated after treatments with the chimeric antibodies at the concentrations of 100 nM, 10 nM and 1 nM, respectively. The scatter plot of double-stained cells by Brilliant Violet 605-labeled CD20 and APC secondary antibody indirectly labeled chimeric antibody is shown in FIG. 10A-FIG. 10B (under the condition of 1 nM of chimeric antibody concentration).

[4] = target: T1, monkey CD22 protein (ACROBiosystems, …); assay: ELISA, coated monkey CD22 protein, antibody 100 nM
Protocol: as §1, §2

[5] = target: T2, CD22 on cynomolgus monkey peripheral …; assay: FACS, cynomolgus PBMC, CD20+ B cells, antibody 10 nM
Excerpt: as §3

[6] = target: T1, monkey CD22 protein (ACROBiosystems, …); assay: ELISA, coated monkey CD22 protein, antibody 10 nM
Protocol: as §1, §2

[7] = target: T1, monkey CD22 protein (ACROBiosystems, …); assay: ELISA, coated monkey CD22 protein, antibody 0.1 nM
Protocol: as §1, §2

[8] = target: T1, monkey CD22 protein (ACROBiosystems, …); assay: ELISA, coated monkey CD22 protein, antibody 0.001 nM
Protocol: as §1, §2

[9] = target: T1, monkey CD22 protein (ACROBiosystems, …); assay: ELISA, coated monkey CD22 protein, antibody 0.0001 nM
Protocol: as §1, §2

[10] = target: T2, CD22 on cynomolgus monkey peripheral …; assay: FACS, cynomolgus PBMC, CD20+ B cells, antibody 100 nM
Excerpt: as §3

| Binder | OD450 [1] | OD450 [2] | Proportion of chimeric antibody positive cells to B cells (%) [3] | OD450 [4] | Proportion of chimeric antibody positive cells to B cells (%) [5] | OD450 [6] | OD450 [7] | OD450 [8] | OD450 [9] | Proportion of chimeric antibody positive cells to B cells (%) [10] |
| --- | --- | --- | --- | --- | --- | --- | --- | --- | --- | --- |
| F1.120.15 (antibody, human IgG1, kappa, V domains shown, human-murine chimeric IgG1 kappa) VH: QVQLQQSGPELVKPGASVKISCKASGNAFSNSWMNWVKQRPGKGLEWIGRVYSEDGDTQYNGKFRDKATLTADRSTSTAYMQLSSLTSEDSAVYFCARWLIYYGTYGAMDYWGQGTSVTVSS VL: DIQMTQTTSSLSASLGDRVTISCRASQDINNYLNWYHQKPDGTVKLLIYFTSRPYSGVPSRFSGSGSGTDYSLTISNLEQEDIATYFCQQGNTLPWTFGGGTKLEIKR | 0.06 OD450 | 0.65 OD450 | 27% | 1.64 OD450 | 86% | 1.9 OD450 | 1.56 OD450 | 0.16 OD450 | 0.07 OD450 | 93% |
| F1.7.6 (antibody, human IgG1, kappa, V domains shown, human-murine chimeric IgG1 kappa; VL name legible) VH: EIQLQQSGPELVKPGTSVKVSCKASGYDFTRYNMYWVKQSHGKSLEWIGYIDPYNGDTRYNQKFKGKATLTVDKSSSTAYMHLNSLTSEDSAVYYCEAIYYDMEGYALDYWGQGTSVTVSS VL: DIVMSQSPSSLAVSVGEKVTMSCKSSQSLLYSNNQKNYLAWYQQKPGQSPKKLIYWASTRESGVPDRLTGSGSGTDFTLTISSVTAEDLAVYYCQQFYSYPWTFGGGTKLEIKR | 0.06 OD450 | 0.06 OD450 | 17% | 0.44 OD450 | 28% | 0.17 OD450 | 0.07 OD450 | 0.06 OD450 | 0.06 OD450 | 43% |
| F1.105.11 (antibody, human IgG1, kappa, V domains shown, human-murine chimeric IgG1 kappa; VL name legible) VH: EVQLQQSGPVLVKPGASVKMSCKASGYTFSDYFMNWVKQSHGKSLEWIGIINSYSGGTSYNQKFKGKATLTVDKSSSTAYMELNSLTSEDSAVYYCARWMDYWGQGTSVTVSS VL: DVQITQSPSYLAASPGETITINCRTSESISKHLAWYQEKPGKTNKLLIYSGSTLQSGIPSRFSGSGSGTDFTLTISSLEPEDFAMYYCQQHNEYPWTFGGGTKLEIKR | 0.06 OD450 | 0.68 OD450 | 46% | 1.29 OD450 | 59% | 1.4 OD450 | 1.31 OD450 | 0.17 OD450 | 0.07 OD450 | 69% |

More lines, now with the values ahead:

| OD450 [1] | OD450 [2] | Proportion of chimeric antibody positive cells to B cells (%) [3] | OD450 [4] | Proportion of chimeric antibody positive cells to B cells (%) [5] | OD450 [6] | OD450 [7] | OD450 [8] | OD450 [9] | Proportion of chimeric antibody positive cells to B cells (%) [10] | Binder |
| --- | --- | --- | --- | --- | --- | --- | --- | --- | --- | --- |
| 0.1 OD450 | 2.62 OD450 | 92% | 3.08 OD450 | 95% | 2.97 OD450 | 2.81 OD450 | 1.02 OD450 | 0.23 OD450 | 97% | F1.250.16 (antibody, human IgG1, kappa, V domains shown, human-murine chimeric IgG1 kappa; VL name legible) VH: QVQLQQSGAEQVKPGASVKMSCKASGYTFTTYPIEWMKQNHGESLDWIGNIHPYNDDTEYNEKFKGKATLTVEKSSNTVFLELSRLTSDDSAVYYCVRGDYYNSRYWYFDVWGTGTTVTVSS VL: DIVMTQSQKFMSTTVGDRVSITCKAGQNVRTAVAWYQQKPGQSPKLLIYSASTRYIGVPERFTGSGSGTDFTLTITNMQSEDLADYFCQQYSSFPLTFGTGTKLELKR |
| 0.06 OD450 | 0.27 OD450 | 39% | 2.27 OD450 | 91% | 1.89 OD450 | 1.07 OD450 | 0.1 OD450 | 0.07 OD450 | 95% | F1.267.9 (antibody, human IgG1, kappa, V domains shown, human-murine chimeric IgG1 kappa; VL name legible) VH: EVQLQQSGPVLVKPGASVKMSCKASGYTFTDFYMNWAKQSHGKSLEWVGVINPYNGGINYNQKFKGKATLTVDKSSSTAYMEFNSLTSEDSAVYYCARRMEYHAMDYWGQGTSVTVSS VL: DIVLTQSPASLAVSLGQRATISCRASESVDNYGFDFIHWYQQKPGQPPKLLIYRASNLESGIPARFSGSGSRPDFTLTINPVETDDVATYYCQQSIKDPWTFGGGTKLEIKR |
| 0.06 OD450 | 0.09 OD450 | 11% | 0.45 OD450 | 16% | 0.31 OD450 | 0.17 OD450 | 0.06 OD450 | 0.06 OD450 | 29% | F1.231.15 (antibody, IgG1, V domains shown, human-murine chimeric IgG1 kappa) VH: QVQLQQPGAELVKPGASVKLSCKTSGYTFTIYWMQWVKQRPGRGLEWIGRIDPHSGDTHYNENFTTKVTLTVDETSNTAYMHLSGLTSEDSAVYYCARRDYSYYVLDYWGQGTSVTVSS VL: DVVLTQTPLSLPVSLGDQASISCRSSQSLVHINGDTYLHWYLQKPGQSPKLLIYTVFNRFSGVPDRFSGSGSGTDFTLKISRVEAEDLGAYFCSQSTHVPYTFGGGTKLEIKR |
| 0.08 OD450 | 1.86 OD450 | 83% | 2.87 OD450 | 96% | 2.48 OD450 | 2.3 OD450 | 0.6 OD450 | 0.15 OD450 | 97% | F1.224.1 (antibody, human IgG1, kappa, V domains shown, human-murine chimeric IgG1 kappa; VL name legible) VH: EVLLHQSGPELVKPGASVKISCKASGYTFTDFNMDWVRQRHGQSLEWIGDVNPNNGGTIYNQKFKGKATLTVDKSSSTVYMDLRSLTSDDTAVYYCVRLGTSDYGEAWFISWGQGTVVTVSA VL: DIVLTQSPASLAVSLGQRATISCRASQSVSTPRYSFMHWYQQKPGQPPKLLIKYASNLESGFPARFTGSGSGTDFTLNIHPVEEEDTAAYYCQQSWAIPWTFGGGTKLEIKR |

— US20240084003A1 (SIMCERE ZAIMING PHARMACEUTICAL, published 2024)
